According to patent publication US9081020B2, “Mutant proteins and methods for selecting them” (Heptares Therapeutics Limited, priority 2008, dated 2015):
Read-outs that look alike come from different tables or passages of the source.

B1: L65A/I73A: M1 mAChR double mutant, Ala mutation on L65A background (protein, UniProt P11229 1-460, looked up, variant L65A I73A)
Muscarinic acetylcholine …: MNTSAPPAVSPNITVLAPGKGPWQVAFIGITTGLLSLATVTGNLLVLISFKVNTELKTVNNYFLASLACADLAIGTFSMNLYTTYLLMGHWALGTLACDLWLALDYVASNASVMNLLLISFDRYFSVTRPLSYRAKRTPRRAALMIGLAWLVSFVLWAPAILFWQYLVGERTVLAGQCYIQFLSQPIITFGTAMAAFYLPVTVMCTLYWRIYRETENRARELAALQGSETPGKGGGSSSSSERSQPGAEGSPETPPGRCCRCCRAPRLLQAYSWKEEEEEDEGSMESLTSSEGEEPGSEVVIKMPMVDPEAQAPTKQPPRSSPNTVKRPTKKGRDRAGKGQKPRGKEQLAKRKTFSLVKEKKAARTLSAILLAFILTWTPYNIMVLVSTFCKDCVPETLWELGYWLCYVNSTINPMCYALCNKAFRDTFRLLLLCRWDKRRWRKIPKRPGSVHRTPSRQC
B2: L65A/V409A: M1 mAChR double mutant, Ala mutation on L65A background (protein, UniProt P11229 1-460, looked up, variant L65A V409A)
Muscarinic acetylcholine …: MNTSAPPAVSPNITVLAPGKGPWQVAFIGITTGLLSLATVTGNLLVLISFKVNTELKTVNNYFLASLACADLIIGTFSMNLYTTYLLMGHWALGTLACDLWLALDYVASNASVMNLLLISFDRYFSVTRPLSYRAKRTPRRAALMIGLAWLVSFVLWAPAILFWQYLVGERTVLAGQCYIQFLSQPIITFGTAMAAFYLPVTVMCTLYWRIYRETENRARELAALQGSETPGKGGGSSSSSERSQPGAEGSPETPPGRCCRCCRAPRLLQAYSWKEEEEEDEGSMESLTSSEGEEPGSEVVIKMPMVDPEAQAPTKQPPRSSPNTVKRPTKKGRDRAGKGQKPRGKEQLAKRKTFSLVKEKKAARTLSAILLAFILTWTPYNIMVLVSTFCKDCVPETLWELGYWLCYANSTINPMCYALCNKAFRDTFRLLLLCRWDKRRWRKIPKRPGSVHRTPSRQC
B3: L65A/I74A: M1 mAChR double mutant, Ala mutation on L65A background (protein, UniProt P11229 1-460, looked up, variant L65A I74A)
Muscarinic acetylcholine …: MNTSAPPAVSPNITVLAPGKGPWQVAFIGITTGLLSLATVTGNLLVLISFKVNTELKTVNNYFLASLACADLIAGTFSMNLYTTYLLMGHWALGTLACDLWLALDYVASNASVMNLLLISFDRYFSVTRPLSYRAKRTPRRAALMIGLAWLVSFVLWAPAILFWQYLVGERTVLAGQCYIQFLSQPIITFGTAMAAFYLPVTVMCTLYWRIYRETENRARELAALQGSETPGKGGGSSSSSERSQPGAEGSPETPPGRCCRCCRAPRLLQAYSWKEEEEEDEGSMESLTSSEGEEPGSEVVIKMPMVDPEAQAPTKQPPRSSPNTVKRPTKKGRDRAGKGQKPRGKEQLAKRKTFSLVKEKKAARTLSAILLAFILTWTPYNIMVLVSTFCKDCVPETLWELGYWLCYVNSTINPMCYALCNKAFRDTFRLLLLCRWDKRRWRKIPKRPGSVHRTPSRQC
B4: L65A/E397A: M1 mAChR double mutant, Ala mutation on L65A background (protein, UniProt P11229 1-460, looked up, variant L65A E397A)
Muscarinic acetylcholine …: MNTSAPPAVSPNITVLAPGKGPWQVAFIGITTGLLSLATVTGNLLVLISFKVNTELKTVNNYFLASLACADLIIGTFSMNLYTTYLLMGHWALGTLACDLWLALDYVASNASVMNLLLISFDRYFSVTRPLSYRAKRTPRRAALMIGLAWLVSFVLWAPAILFWQYLVGERTVLAGQCYIQFLSQPIITFGTAMAAFYLPVTVMCTLYWRIYRETENRARELAALQGSETPGKGGGSSSSSERSQPGAEGSPETPPGRCCRCCRAPRLLQAYSWKEEEEEDEGSMESLTSSEGEEPGSEVVIKMPMVDPEAQAPTKQPPRSSPNTVKRPTKKGRDRAGKGQKPRGKEQLAKRKTFSLVKEKKAARTLSAILLAFILTWTPYNIMVLVSTFCKDCVPATLWELGYWLCYVNSTINPMCYALCNKAFRDTFRLLLLCRWDKRRWRKIPKRPGSVHRTPSRQC
B5: I73L: M1 mAChR mutant, substitution of another aliphatic amino acid at Ile 73 (protein)
chain: MNTSAPPAVSPNITVLAPGKGPWQVAFIGITTGLLSLATVTGNLLVLISFKVNTELKTVNNYFLLSLACADLLIGTFSMNLYTTYLLMGHWALGTLACDLWLALDYVASNASVMNLLLISFDRYFSVTRPLSYRAKRTPRRAALMIGLAWLVSFVLWAPAILFWQYLVGERTVLAGQCYIQFLSQPIITFGTAMAAFYLPVTVMCTLYWRIYRETENRARELAALQGSETPGKGGGSSSSSERSQPGAEGSPETPPGRCCRCCRAPRLLQAYSWKEEEEEDEGSMESLTSSEGEEPGSEVVIKMPMVDPEAQAPTKQPPRSSPNTVKRPTKKGRDRAGKGQKPRGKEQLAKRKTFSLVKEKKAARTLSAILLAFILTWTPYNIMVLVSTFCKDCVPETLWELGYWLCYVNSTINPMCYALCNKAFRDTFRLLLLCRWDKRRWRKIPKRPGSVHRTPSRQC
B6: L148A: M1 mAChR mutant L148A (protein)
chain: MNTSAPPAVSPNITVLAPGKGPWQVAFIGITTGLLSLATVTGNLLVLISFKVNTELKTVNNYFLLSLACADLIIGTFSMNLYTTYLLMGHWALGTLACDLWLALDYVASNASVMNLLLISFDRYFSVTRPLSYRAKRTPRRAALMIGAAWLVSFVLWAPAILFWQYLVGERTVLAGQCYIQFLSQPIITFGTAMAAFYLPVTVMCTLYWRIYRETENRARELAALQGSETPGKGGGSSSSSERSQPGAEGSPETPPGRCCRCCRAPRLLQAYSWKEEEEEDEGSMESLTSSEGEEPGSEVVIKMPMVDPEAQAPTKQPPRSSPNTVKRPTKKGRDRAGKGQKPRGKEQLAKRKTFSLVKEKKAARTLSAILLAFILTWTPYNIMVLVSTFCKDCVPETLWELGYWLCYVNSTINPMCYALCNKAFRDTFRLLLLCRWDKRRWRKIPKRPGSVHRTPSRQC

Assays:
[1] = tested on: M1 mAChR; test: thermal stability (Tm) of partially purified [3H]NMS-labelled receptors in 0.1% dodecyl-β-maltoside; format: physicochemical, rat; conditions: for Tm (0.1% DDM): incubation time 30 min, mean±range/SEM; for thermal stability (Tm) relative to L65A, in words: partially purified mutants; for Tm (0.1% DDM) / thermal stability (Tm) relative to L65A, in words: 0.1% DDM
Description: For measurements of thermal melting temperature (Tm), [3H]NMS-labelled receptors were partially purified by immobilized metal ion affinity chromatography from cultures grown from single clones expressed in E. Coli BL21 cells, essentially as described in Hulme and Curtis, 1998 (21). Tm measurements were carried out after gel-filtration of partially purified receptors into 50 mM sodium phosphate, 5 mM β-mercaptoethanol and 0.1% dodecyl-β-maltoside (DDM), using an incubation time of 30 min. Values were tabulated as mean±range/SEM of 2 or more independent measurements (Table 3).

[2] = tested on: M1 mAChR; format: physicochemical; conditions: for Stability (βOG in-situ) % L65A control / in-situ stability relative to L65A, in words: 0.82% β-octyl glucoside; for Stability (βOG in-situ) % L65A control: % loss(control)/% loss(mutant), mean±SEM of 3; for in-situ stability relative to L65A, in words: L65A background; for % 3H-NMS retained BOG: whole E. coli BL21 cells, single culture
Description: This concentration was determined by analysing wild-type M1 mAChRs expressed in the inner cell membranes of intact E. Coli strain BL21 cells. The cells were pre-labelled with the radiolabelled antagonist 3H—N-methyl scopolamine and resuspended to a pre-determined cell density (Absorbance at 600 nm=2.0) in a chosen buffer (in this case 50 mM sodium phosphate, 1 mM EDTA, pH 7.5). […] The wild-type M1 mAChRs were titrated by the addition of increasing concentrations of beta octyl glucoside dissolved in the same buffer for different times (e.g. 1 h, 2 h, 3 h, 5 h, 15 h) and at different temperatures (e.g. 4° C., 15° C.). The loss of specifically-bound radioligand was then measured after recovering the cells by centrifugation (15000×g, 15 min.). In the example, the centrifugation step was performed on duplicate 1 ml aliquots of the cells. The experiment was repeated 3 times. […] It will be appreciated that the cell density, detergent concentration and other parameters of the assay may be varied to adjust the loss of activity as appropriate.
(a) A state of in-situ destabilisation of a particular membrane protein in a particular cell membrane as a result of the addition of a particular concentration of a particular detergent, can be defined by the loss of the characteristic specific ligand binding activity of the membrane protein for a particular ligand of interest in the presence of a defined concentration of a particular detergent molecule or other solubilising agent.
A preferred version of the assay is destabilisation of a membrane protein-ligand complex in a detergent-enriched membrane. The membrane protein, either in a membrane preparation, or in intact cells in-vivo or ex-vivo, is pre-incubated with a labelled version of the ligand, the label, for instance, being a radioactive label, or a fluorescent label, and the binding step preferably being allowed to proceed to equilibrium, defined as the achievement of a time-invariant level of binding. To define membrane protein-independent, or non-specific, binding the binding step is performed with the addition of a second non-labelled ligand, called the competing ligand, having an appropriate membrane protein-specific pharmacology, at a concentration sufficient fully to occupy the binding sites of the membrane protein and thereby exclude the binding of the labelled ligand. The difference between the binding of the labelled ligand in the absence and presence of the competing ligand is defined as the specific binding of the labelled ligand. Measurement of binding requires a suitable method for separating and measuring bound ligand. Characteristically, this involves centrifugation of intact cells or membranes for a time and at a centrifugal force adequate to pellet them (for instance, 15000×g for 15 min in the case of E. coli cells, or 100,000×g for plasma membrane preparations), or filtration of a membrane suspension e.g. through a suitable filter paper such as glass fibre paper e.g. GF-B or GF-C followed by counting of radioactivity. Alternatively, it might involve the measurement of an optical signal such as enhancement of fluorescence emission in the case of fluorescent ligands.
To perform the in-situ destabilisation assay, a pre-determined concentration of the detergent or other destabilising agent of choice is mixed with a membrane or cell suspension containing the pre-labelled membrane protein in an appropriate buffer composition at a particular temperature and for a particular time, determined as described below.

Molecule | Tm (0.1% DDM) [1] [°C] | thermal stability (Tm) relative to L65A, in words [1] | Stability (βOG in-situ) % L65A control ([2]; 3 h, 4° C.) [% L65A control] | in-situ stability relative to L65A, in words [2] | extra increment of stability (full thermal stability assay) ([1]; 0.1% dodecyl maltoside) [°C] | % 3H-NMS retained BOG ([2]; 0.82% BOG, 3 h, 4° C., listed as L148A 1) [%] | % 3H-NMS retained BOG ([2]; 0.82% BOG, 3 h, 4° C., listed as L148A 2) [%] | % loss/wt ([2]; 0.82% BOG, 3 h, 4° C., % loss relative to wild-type control) | mean % retained ([2]; 0.82% BOG, 3 h, 4° C., mean of the cultures) [%]
B1 | 27.0 ± 0.5 | reduced stability | 46 ± 2 | significantly reduced stability |  |  |  |  | 
B2 | 26.8 | reduced stability | 34 ± 3 | significantly reduced stability |  |  |  |  | 
B3 | 28.8 ± 0.5 | no change | 51 ± 3 | significantly reduced stability |  |  |  |  | 
B4 | 33.6 ± 0.2 | increased stability | 166 ± 16 | more stable |  |  |  |  | 
B5 |  |  |  |  | 0.9 |  |  |  | 
B6 |  |  |  |  |  | 74 | 69 | 0.54 | 71.5
